Experimental data reported in PMC2844433, “Polo-Like Kinase 2-Dependent Phosphorylation of NPM/B23 on Serine 4 Triggers Centriole Duplication” (PLoS ONE, 2010).

Target: T1, Recombinant His-tagged NPM/B23 (UniProt P06748 1-294)
T1 construct: NPM/B23 (Nucleophosmin), bacterially produced, unphosphorylated; also called His-NPM/B23; His-tagged NPM/B23 WT; source: E. coli BL21, purified (Ni-NTA agarose)
Assay: pull-down; in vitro binding assay: Flag-Plk2 fragments immunoprecipitated from 293T cells, bound to Protein G sepharose, incubated with 15 µg recombinant His-NPM/B23 in PBS with 0.05% NP-40 for 2 h at 4°C; Western blot
Conditions: both partners purified

T1 sequence (P06748 whole entry): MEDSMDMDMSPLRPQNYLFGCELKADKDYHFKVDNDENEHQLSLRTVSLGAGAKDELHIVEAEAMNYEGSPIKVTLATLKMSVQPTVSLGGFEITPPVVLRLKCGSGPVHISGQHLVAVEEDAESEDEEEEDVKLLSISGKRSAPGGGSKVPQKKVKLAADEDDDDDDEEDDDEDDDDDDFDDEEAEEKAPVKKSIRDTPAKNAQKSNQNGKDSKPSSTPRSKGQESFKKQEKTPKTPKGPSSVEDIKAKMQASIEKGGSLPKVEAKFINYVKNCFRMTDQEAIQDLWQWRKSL

B1: Flag-Plk2-(aa 590–685) (domain or fragment, UniProt Q9NYY3 590-685, looked up)
chain: PSVTDIRRPRLYLLQWLKSDKALMMLFNDGTFQVNFYHDHTKIIICSQNEEYLLTYINEDRISTTFRLTTLLMSGCSSELKNRMEYALNMLLQRCN
notes: also called second Polo-box of Plk2; source: 293T, transfected, immunoprecipitated with anti-Flag antibodies
B1: binds.
